Biological target: HLA-A2 Ag on A375SM melanoma cells (human)
Experiment: cell-based or functional assay

For anti-HLA-A2 mAb MA2.1 (antibody), the inhibition of lysis of A375SM melanoma cells by I-100-CTL and I-102-CTL (51Cr release assay) was > 50%.
